# Key:
# GFP-14-3-3β = GFP-14-3-3β co-IP with LC-MS/MS, untreated GFP-14-3-3β versus GFP control (14-3-3 interactome); assay type: binding, human; conditions: pairwise comparison untreated vs GFP
# [1] = test system: GFP-14-3-3β and its binding proteins; assay: GFP-14-3-3β co-IP with LC-MS/MS label-free quantification, untreated versus PP1c-treated; parameters: species or system human; conditions: pairwise comparison PP1 vs untreated
# [2] = log2 difference, label-free quantification, 3 replicates each
Molecule,"Difference (log2), PP1 vs untreated [1] [log2]","Difference (log2), PP1 vs untreated [1, 2]","Difference (log2), untreated vs GFP (GFP-14-3-3β) [log2]","Difference (log2), untreated vs GFP (GFP-14-3-3β; [2])"
"CLPTM1L (protein, UniProt Q96KA5 1-538, looked up) Lipid scramblase CLPTM1L: MWSGRSSFTSLVVGVFVVYVVHTCWVMYGIVYTRPCSGDANCIQPYLARRPKLQLSVYTTTRSHLGAENNIDLVLNVEDFDVESKFERTVNVSVPKKTRNNGTLYAYIFLHHAGVLPWHDGKQVHLVSPLTTYMVPKPEEINLLTGESDTQQIEAEKKPTSALDEPVSHWRPRLALNVMADNFVFDGSSLPADVHRYMKMIQLGKTVHYLPILFIDQLSNRVKDLMVINRSTTELPLTVSYDKVSLGRLRFWIHMQDAVYSLQQFGFSEKDADEVKGIFVDTNLYFLALTFFVAAFHLLFDFLAFKNDISFWKKKKSMIGMSTKAVLWRCFSTVVIFLFLLDEQTSLLVLVPAGVGAAIELWKVKKALKMTIFWRGLMPEFQFGTYSESERKTEEYDTQAMKYLSYLLYPLCVGGAVYSLLNIKYKSWYSWLINSFVNGVYAFGFLFMLPQLFVNYKLKSVAHLPWKAFTYKAFNTFIDDVFAFIITMPTSHRLACFRDDVVFLVYLYQRWLYPVDKRRVNEFGESYEEKATRAPHTD",0.154,–,0.3996,–
"DDX28 (protein, UniProt Q9NUL7 1-540, looked up) Probable ATP-dependent RNA …: MALTRPVRLFSLVTRLLLAPRRGLTVRSPDEPLPVVRIPVALQRQLEQRQSRRRNLPRPVLVRPGPLLVSARRPELNQPARLTLGRWERAPLASQGWKSRRARRDHFSIERAQQEAPAVRKLSSKGSFADLGLEPRVLHALQEAAPEVVQPTTVQSSTIPSLLRGRHVVCAAETGSGKTLSYLLPLLQRLLGQPSLDSLPIPAPRGLVLVPSRELAQQVRAVAQPLGRSLGLLVRDLEGGHGMRRIRLQLSRQPSADVLVATPGALWKALKSRLISLEQLSFLVLDEADTLLDESFLELVDYILEKSHIAEGPADLEDPFNPKAQLVLVGATFPEGVGQLLNKVASPDAVTTITSSKLHCIMPHVKQTFLRLKGADKVAELVHILKHRDRAERTGPSGTVLVFCNSSSTVNWLGYILDDHKIQHLRLQGQMPALMRVGIFQSFQKSSRDILLCTDIASRGLDSTGVELVVNYDFPPTLQDYIHRAGRVGRVGSEVPGTVISFVTHPWDVSLVQKIELAARRRRSLPGLASSVKEPLPQAT",0.1504,–,0.1408,–
"CCDC18 (protein, UniProt Q5T9S5 1-1454, looked up) Coiled-coil domain-containing …: MESSSSDYYNKDNEEESLLANVASLRHELKITEWSLQSLGEELSSVSPSENSDYAPNPSRSEKLILDVQPSHPGLLNYSPYENVCKISGSSTDFQKKPRDKMFSSSAPVDQEIKSLREKLNKLRQQNACLVTQNHSLMTKFESIHFELTQSRAKVSMLESAQQQAASVPILEEQIINLEAEVSAQDKVLREAENKLEQSQKMVIEKEQSLQESKEECIKLKVDLLEQTKQGKRAERQRNEALYNAEELSKAFQQYKKKVAEKLEKVQAEEEILERNLTNCEKENKRLQERCGLYKSELEILKEKLRQLKEENNNGKEKLRIMAVKNSEVMAQLTESRQSILKLESELENKDEILRDKFSLMNENRELKVRVAAQNERLDLCQQEIESSRVELRSLEKIISQLPLKRELFGFKSYLSKYQMSSFSNKEDRCIGCCEANKLVISELRIKLAIKEAEIQKLHANLTANQLSQSLITCNDSQESSKLSSLETEPVKLGGHQVESVKDQNQHTMNKQYEKERQRLVTGIEELRTKLIQIEAENSDLKVNMAHRTSQFQLIQEELLEKASNSSKLESEMTKKCSQLLTLEKQLEEKIVAYSSIAAKNAELEQELMEKNEKIRSLETNINTEHEKICLAFEKAKKIHLEQHKEMEKQIERLEAQLEKKDQQFKEQEKTMSMLQQDIICKQHHLESLDRLLTESKGEMKKENMKKDEALKALQNQVSEETIKVRQLDSALEICKEELVLHLNQLEGNKEKFEKQLKKKSEEVYCLQKELKIKNHSLQETSEQNVILQHTLQQQQQMLQQETIRNGELEDTQTKLEKQVSKLEQELQKQRESSAEKLRKMEEKCESAAHEADLKRQKVIELTGTARQVKIEMDQYKEELSKMEKEIMHLKRDGENKAMHLSQLDMILDQTKTELEKKTNAVKELEKLQHSTETELTEALQKREVLETELQNAHGELKSTLRQLQELRDVLQKAQLSLEEKYTTIKDLTAELRECKMEIEDKKQELLEMDQALKERNWELKQRAAQVTHLDMTIREHRGEMEQKIIKLEGTLEKSELELKECNKQIESLNDKLQNAKEQLREKEFIMLQNEQEISQLKKEIERTQQRMKEMESVMKEQEQYIATQYKEAIDLGQELRLTREQVQNSHTELAEARHQQVQAQREIERLSSELEDMKQLSKEKDAHGNHLAEELGASKVREAHLEARMQAEIKKLSAEVESLKEAYHMEMISHQENHAKWKISADSQKSSVQQLNEQLEKAKLELEEAQDTVSNLHQQVQDRNEVIEAANEALLTKESELTRLQAKISGHEKAEDIKFLPAPFTSPTEIMPDVQDPKFAKCFHTSFSKCTKLRRSISASDLTFKIHGDEDLSEELLQDLKKMQLEQPSTLEESHKNLTYTQPDSFKPLTYNLEADSSENNDFNTLSGMLRYINKEVRLLKKSSMQTGAGLNQGENV",0.1672,–,0.2347,–

# Further lines, with some results ahead:
"Difference (log2), PP1 vs untreated [1] [log2]","Difference (log2), PP1 vs untreated [1, 2]",Molecule,"Difference (log2), untreated vs GFP (GFP-14-3-3β) [log2]","Difference (log2), untreated vs GFP (GFP-14-3-3β; [2])"
0.1636,–,"LBR (protein, UniProt Q14739 1-615, looked up) Delta(14)-sterol reductase LBR: MPSRKFADGEVVRGRWPGSSLYYEVEILSHDSTSQLYTVKYKDGTELELKENDIKPLTSFRQRKGGSTSSSPSRRRGSRSRSRSRSPGRPPKSARRSASASHQADIKEARREVEVKLTPLILKPFGNSISRYNGEPEHIERNDAPHKNTQEKFSLSQESSYIATQYSLRPRREEVKLKEIDSKEEKYVAKELAVRTFEVTPIRAKDLEFGGVPGVFLIMFGLPVFLFLLLLMCKQKDPSLLNFPPPLPALYELWETRVFGVYLLWFLIQVLFYLLPIGKVVEGTPLIDGRRLKYRLNGFYAFILTSAVIGTSLFQGVEFHYVYSHFLQFALAATVFCVVLSVYLYMRSLKAPRNDLSPASSGNAVYDFFIGRELNPRIGTFDLKYFCELRPGLIGWVVINLVMLLAEMKIQDRAVPSLAMILVNSFQLLYVVDALWNEEALLTTMDIIHDGFGFMLAFGDLVWVPFIYSFQAFYLVSHPNEVSWPMASLIIVLKLCGYVIFRGANSQKNAFRKNPSDPKLAHLKTIHTSTGKNLLVSGWWGFVRHPNYLGDLIMALAWSLPCGFNHILPYFYIIYFTMLLVHREARDEYHCKKKYGVAWEKYCQRVPYRIFPYIY",2.137,–
0.1347,–,"MAGED2 (protein, UniProt Q9UNF1 2-606, looked up) Melanoma-associated antigen D2: SDTSESGAGLTRFQAEASEKDSSSMMQTLLTVTQNVEVPETPKASKALEVSEDVKVSKASGVSKATEVSKTPEAREAPATQASSTTQLTDTQVLAAENKSLAADTKKQNADPQAVTMPATETKKVSHVADTKVNTKAQETEAAPSQAPADEPEPESAAAQSQENQDTRPKVKAKKARKVKHLDGEEDGSSDQSQASGTTGGRRVSKALMASMARRASRGPIAFWARRASRTRLAAWARRALLSLRSPKARRGKARRRAAKLQSSQEPEAPPPRDVALLQGRANDLVKYLLAKDQTKIPIKRSDMLKDIIKEYTDVYPEIIERAGYSLEKVFGIQLKEIDKNDHLYILLSTLEPTDAGILGTTKDSPKLGLLMVLLSIIFMNGNRSSEAVIWEVLRKLGLRPGIHHSLFGDVKKLITDEFVKQKYLDYARVPNSNPPEYEFFWGLRSYYETSKMKVLKFACKVQKKDPKEWAAQYREAMEADLKAAAEAAAEAKARAEIRARMGIGLGSENAAGPCNWDEADIGPWAKARIQAGAEAKAKAQESGSASTGASTSTNNSASASASTSGGFSAGASLTATLTFGLFAGLGGAGASTSGSSGACGFSYK",0.4555,–
–,2.052,"KTN1 (protein, UniProt Q86UP2 1-1357, looked up) Kinectin: MEFYESAYFIVLIPSIVITVIFLFFWLFMKETLYDEVLAKQKREQKLIPTKTDKKKAEKKKNKKKEIQNGNLHESDSESVPRDFKLSDALAVEDDQVAPVPLNVVETSSSVRERKKKEKKQKPVLEEQVIKESDASKIPGKKVEPVPVTKQPTPPSEAAASKKKPGQKKSKNGSDDQDKKVETLMVPSKRQEALPLHQETKQESGSGKKKASSKKQKTENVFVDEPLIHATTYIPLMDNADSSPVVDKREVIDLLKPDQVEGIQKSGTKKLKTETDKENAEVKFKDFLLSLKTMMFSEDEALCVVDLLKEKSGVIQDALKKSSKGELTTLIHQLQEKDKLLAAVKEDAAATKDRCKQLTQEMMTEKERSNVVITRMKDRIGTLEKEHNVFQNKIHVSYQETQQMQMKFQQVREQMEAEIAHLKQENGILRDAVSNTTNQLESKQSAELNKLRQDYARLVNELTEKTGKLQQEEVQKKNAEQAATQLKVQLQEAERRWEEVQSYIRKRTAEHEAAQQDLQSKFVAKENEVQSLHSKLTDTLVSKQQLEQRLMQLMESEQKRVNKEESLQMQVQDILEQNEALKAQIQQFHSQIAAQTSASVLAEELHKVIAEKDKQIKQTEDSLASERDRLTSKEEELKDIQNMNFLLKAEVQKLQALANEQAAAAHELEKMQQSVYVKDDKIRLLEEQLQHEISNKMEEFKILNDQNKALKSEVQKLQTLVSEQPNKDVVEQMEKCIQEKDEKLKTVEELLETGLIQVATKEEELNAIRTENSSLTKEVQDLKAKQNDQVSFASLVEELKKVIHEKDGKIKSVEELLEAELLKVANKEKTVQDLKQEIKALKEEIGNVQLEKAQQLSITSKVQELQNLLKGKEEQMNTMKAVLEEKEKDLANTGKWLQDLQEENESLKAHVQEVAQHNLKEASSASQFEELEIVLKEKENELKRLEAMLKERESDLSSKTQLLQDVQDENKLFKSQIEQLKQQNYQQASSFPPHEELLKVISEREKEISGLWNELDSLKDAVEHQRKKNNDLREKNWEAMEALASTEKMLQDKVNKTSKERQQQVEAVELEAKEVLKKLFPKVSVPSNLSYGEWLHGFEKKAKECMAGTSGSEEVKVLEHKLKEADEMHTLLQLECEKYKSVLAETEGILQKLQRSVEQEENKWKVKVDESHKTIKQMQSSFTSSEQELERLRSENKDIENLRREREHLEMELEKAEMERSTYVTEVRELKDLLTELQKKLDDSYSEAVRQNEELNLLKAQLNETLTKLRTEQNERQKVAGDLHKAQQSLELIQSKIVKAAGDTTVIENSDVSPETESSEKETMSVSLNQTVTQLQQLLQAVNQQLTKEKEHYQVLE",–,-1.401

# Reference: paper PMC7367873, “Dissecting the sequence determinants for dephosphorylation by the catalytic subunits of phosphatases PP1 and PP2A” (Nature Communications, 2020)
